{"source": "patent US20250312468A1", "about": "“ANTI-PROTAC ANTIBODIES AND COMPLEXES” (Merck Patent GmbH, priority 2021, published 2025)", "key": {"EGFR [1]": {"molecular_target": "EGFR (UniProt P00533)", "experiment": "cell-based or functional assay"}, "CD33": {"molecular_target": "CD33 (UniProt P20138)", "experiment": "flow cytometry on CD33-expressing MV411 cells, Alexa Fluor 488 anti-human IgG Fab as secondary, on ice"}, "EGFR [2]": {"molecular_target": "EGFR (UniProt P00533)", "experiment": "flow cytometry on MDAMB468 cells, Alexa Fluor 488 anti-human IgG Fab as secondary, on ice"}}, "data": [{"substance": "C225-L328C-GNE987 (antibody)", "values": [{"measurement": "IC50 cell viability, MDAMB468 cells, three independent experiments", "setting": "EGFR [1]", "result": 0.8, "unit": "nM"}, {"measurement": "remaining nuclear BRD4 (immunofluorescence) in EGFR-expressing MDAMB468 cells at 4 nM", "setting": "EGFR [1]", "result": 44.2, "unit": "%"}]}, {"substance": "CD33-binding antibody Gemtuzumab (IgG4-PG-SPLE)", "values": [{"measurement": "EC50 (read off the curve)", "setting": "CD33", "result": 0.3, "unit": "nM"}]}, {"substance": "EGFR-binding antibody Cetuximab", "values": [{"measurement": "EC50 (read off the curve)", "setting": "EGFR [2]", "result": 0.6, "unit": "nM"}]}]}
